Measurements from paper PMC4894380.

Molecular target: MqsA (Escherichia coli (strain of the protein …, UniProt Q46864 1-131))
Experiment: EMSA; shift at 50-, 100- and 200-fold excess MqsA; 10 mM Tris-HCl pH 7.5, 50 mM KCl, 1 mM DTT, 1 ug poly(dI.dC), 30-50 fmol labeled probe, ambient temperature, 1 h; 6% gel, 0.5x TBE

Chain of MqsA (Escherichia coli (Q46864 whole entry): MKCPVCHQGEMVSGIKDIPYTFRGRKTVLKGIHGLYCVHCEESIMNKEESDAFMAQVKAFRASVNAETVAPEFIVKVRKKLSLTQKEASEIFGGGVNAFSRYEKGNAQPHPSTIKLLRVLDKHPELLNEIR

B1: p-csgD native palindrome 30-mer (dsDNA)
DNA 1: ACTTAATAAAACCTTAAGGTTAACATTTTA
DNA 2: TAAAATGTTAACCTTAAGGTTTTATTAAGT
B1: binds.
